{
  "source": "patent US9395368B2",
  "about": "“Methods, agents and peptides for inducing an immune response to matrix metalloproteinase-2 expressing tumors” (New York University, priority 2010, dated 2016)",
  "molecules": {"B1": {"name": "active MMP-2: Purified human MMP-2 (mixture of the proenzyme (50%) and the active form (50%)) purchased from Biomol (protein, listed as Homo sapiens)", "chain": "MEALMARGALTGPLRALCLLGCLLSHAAAAPSPIIKFPGDVAPKTDKELAVQYLNTFYGCPKESCNLFVLKDTLKKMQKFFGLPQTGDLDQNTIETMRKPRCGNPDVANYNFFPRKPKWDKNQITYRIIGYTPDLDPETVDDAFARAFQVWSDVTPLRFSRIHDGEADIMINFGRWEHGDGYPFDGKDGLLAHAFAPGTGVGGDSHFDDDELWTLGEGQVVRVKYGNADGEYCKFPFLFNGKEYNSCTDTGRSDGFLWCSTTYNFEKDGKYGFCPHEALFTMGGNAEGQPCKFPFRFQGTSYDSCTTEGRTDGYRWCGTTEDYDRDKKYGFCPETAMSTVGGNSEGAPCVFPFTFLGNKYESCTSAGRSDGKMWCATTANYDDDRKWGFCPDQGYSLFLVAAHEFGHAMGLEHSQDPGALMAPIYTYTKNFRLSQDDIKGIQELYGASPDIDLGTGPTPTLGPVTPEICKQDIVFDGIAQIRGEIFFFKDRFIWRTVTPRDKPMGPLLVATFWPELPEKIDAVYEAPQEEKAVFFAGNEYWIYSASTLERGYPKPLTSLGLPPDVQRVDAAFNWSKNKKTYIFAGDKFWRYNEVKKKMDPGFPKLIADAWNAIPDNLDAVVDLQGGGHSYFFKGAYYLKLENQSLKSVKFGSIKSDWLGC"}},
  "key": {"[1]": {"system": "IFNAR1", "assay": "IFNAR1 protein expression in DCs (Western blot)", "type": "cell-based, human", "details": "n=7 donors", "experimental": "(§1) Immature DCs were incubated with MMP-2 (0.5 μg/mL or 5 μg/mL) and poly(I:C)-matured 1 h later. IL-12 levels were measured 16 h later. (A) Results are represented as a percentage of IL-12p70 levels, measured by CBA, produced when DCs were incubated with poly(I:C) only (n=11). (B) For intracellular staining of IL-12p35 and IL-12p40 chains, Brefeldin A was added 4 h after poly(I:C) activation and cells were stained after an additional 12 h incubation. Numbers in the upper right quadrants are the percentages of each population for a representative donor (n=3). (C,D) Immature DCs were incubated with MMP-2 for 1 h (5 μg/mL) before poly(I:C) maturation. Intracellular staining of phosphorylated (Y701) STAT1 (P-STAT1) was performed 3 h later. A representative donor (C) and results for all 3 donors (D) are shown. […] (E) Immature DCs were incubated with MMP-2 and poly(I:C)-matured 1 h later. IFNβ levels were measured by ELISA 16 h later. Results are represented as a percentage of IFNβ levels produced when DCs were incubated with poly(I:C) only (n=9). (F,G) 10^6DCs/lane were treated with 0.1 μg MMP-2 or controls. Poly(I:C) was added 1 h later. IFNAR1 protein expression was detected the next day by Western blot analysis using a rabbit monoclonal antibody. […]\nWestern blots IFNAR1 and β-actin were detected by Western blot analysis using rabbit and mouse mAbs, respectively. […]"}, "[2]": {"system": "IL-12p70 production by DCs", "assay": "IL-12p70 production by poly(I:C)-matured DCs (CBA)", "type": "cell-based, human", "experimental": "as §1, with “antibody. A representative donor (F) and results for all 7 donors (G) are shown. (H) The rhIFNAR1 (5 μg; ≈110 kD) was incubated overnight with 0.3 μg MMP-2 before performing Western blot analysis for IFNAR1. The second band (around 90 kD) and the third band (25 kD) very likely correspond to either a degraded form of the protein still recognized by the antibody or a contaminant present in the commercial protein preparation and non-specifically recognized by the antibody. MMP-2 enzymatic activity was controlled (FIG. 13C-D).” for “antibody.”\nDendritic cell preparation and activation. […] Immature DCs were harvested on day 5 and matured using poly(I:C) at 5 μg/mL/10^6 DCs (Amersham) Secretion of IL-12p70, TNFα, IL-1β, IL-6, IL-8 and IL-10 was assessed on both immature and mature DCs using the Human Inflammatory Cytokine Cytometric Bead Array (BD Pharmingen)."}, "[3]": {"system": "Recombinant IL-12p70", "assay": "Incubation of recombinant IL-12p70 with MMP-2, IL-12p70 content by CBA", "type": "biochemical, human", "details": "rhIL-12 incubated for 24 h in the presence or absence of MMP-2"}},
  "data": [
    {"molecule": "B1", "values": [
      {"measurement": "expression of IFNAR1 chain on DCs", "setting": "[1]", "value": "drastically lost expression"},
      {"measurement": "IL-12p70, mean of differences", "setting": "[2]; 5 μg/mL MMP-2, n=11 donors", "value": 41.7},
      {"measurement": "IL-12p70 mean inhibition", "setting": "[2]; 5 μg/mL MMP-2, poly(I:C) stimulation, n=11 donors", "value": 47.8, "unit": "%"},
      {"measurement": "IL-12p70 levels after incubation of rhIL-12 with MMP-2", "setting": "[3]", "value": "remained the same"}
    ]}
  ]
}
